Laboratory results as given in US20030088057A1, “PEPTIDE SUBSTRATES PHOSPHORYLATED BY P21-ACTIVAGED PROTEIN KINASE STATEMENT REGARDING FEDERALLY SPONSORED REASEARCH OR DEVELOPMENT” (priority 1998, published 2003).

B1: prolactin: rat prolactin (protein)
chain: LPVCSGGDCQTPLPELFDRVVMLSHYIHTLYTDMFIEFDKQYVQDREFIAKAINDCPTSSLATPEDKEQAQKVPPEVLLNLILSLVHSWNDPLFQLITGLGGIHEAPDAIISRAKEIEEQNKRLLEGIEKIISQAYPEAKGNEIYLVWSQLPSLQGVDEESKDLAFYNNIRCLRRDSHKVDNYLKFLRCQIVHKNNC
B2: myelin basic protein: bovine myelin basic protein, purchased from Sigma (protein)
chain: AAQKRPSQRSKYLASASTMDHARHGFLPRHRDTGILDSLGRFFGSDRGAPKRGSGKDGHHAARTTHYGSLPQKAQGHRPQDENPVVHFFKNIVTPRTPPPSQGKGRGLSLSRFSWGAEGQKPGFGYGGRASDYKSAHKGLKGHDAQGTLSKIFKLGGRDSRSGSPMARR

System: γ-PAK
Sequence (Q29502 249-524 limits assumed): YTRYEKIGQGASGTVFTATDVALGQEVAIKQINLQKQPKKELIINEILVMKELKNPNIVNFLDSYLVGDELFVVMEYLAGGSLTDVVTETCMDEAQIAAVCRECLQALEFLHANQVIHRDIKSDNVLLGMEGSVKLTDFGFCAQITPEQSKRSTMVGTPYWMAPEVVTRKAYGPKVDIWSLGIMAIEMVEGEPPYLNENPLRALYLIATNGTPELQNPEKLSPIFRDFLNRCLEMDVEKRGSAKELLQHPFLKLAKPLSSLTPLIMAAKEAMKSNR
Experiment: Phosphorylation of protein substrates by γ-PAK
Format: biochemical, rabbit
Details: for 32P incorporated: 2 μg protein substrate, 20 units active γ-PAK, 15 min at 30° C.; for rel rate: relative to histone 2B = 100
Protocol: D. Phosphorylation Assays. Phosphorylation of protein substrates was carried out in 35 μL reaction mixtures containing 20 mM Tris-HCl, pH 7.4, 10 mM MgCl2, 30 mM 2-mercaptoethanol, 0.2 mM ATP (specific activity =1000 cpm/pmol), 2 μg of protein substrate, and 20 units of active γ-PAK (an enzyme unit is defined as the amount of enzyme that incorporates 1 pmol of phosphate into histone IIAS/ min at 30°. Under these conditions, phosphate incorporation was linear and initial rates of phosphorylation were measured. After incubation at 30° C. for 15 min, reactions were terminated by the addition of 5 μL of 100 mM nonlabeled ATP and sample buffer for gel electrophoresis [Hathaway, G. M., et al., Methods Enzymol., 60:495-511 (1979)]. Reaction mixtures were subjected to SDS-PAGE on 15% polyacrylamide gels followed by autoradiography. Phosphorylation was quantified by excising the protein band and counting the incorporated ^32P in a liquid scintillation counter. The specific activity of γ-PAK was 400 pmol min^−1 μg^−1 as reported previously using 0.2 mM ATP and 1 mg/mL mixed histone as substrate [Rooney, R. D., et al., (1996), supra].
A number of proteins were examined as substrates, and their relative rates of phosphorylation were compared (Table 6).

| Molecule | 32P incorporated [pmol] | rel rate [%] |
| --- | --- | --- |
| B1 | 1.8 | 17 |
| B2 | 4.2 | 37 |
